{
  "source": "paper PMC5034325",
  "target": "human taste receptor T1R2-T1R3 (human) (UniProt Q8TE23)",
  "sequence (Q8TE23 20-839, chain 1 of 2)": "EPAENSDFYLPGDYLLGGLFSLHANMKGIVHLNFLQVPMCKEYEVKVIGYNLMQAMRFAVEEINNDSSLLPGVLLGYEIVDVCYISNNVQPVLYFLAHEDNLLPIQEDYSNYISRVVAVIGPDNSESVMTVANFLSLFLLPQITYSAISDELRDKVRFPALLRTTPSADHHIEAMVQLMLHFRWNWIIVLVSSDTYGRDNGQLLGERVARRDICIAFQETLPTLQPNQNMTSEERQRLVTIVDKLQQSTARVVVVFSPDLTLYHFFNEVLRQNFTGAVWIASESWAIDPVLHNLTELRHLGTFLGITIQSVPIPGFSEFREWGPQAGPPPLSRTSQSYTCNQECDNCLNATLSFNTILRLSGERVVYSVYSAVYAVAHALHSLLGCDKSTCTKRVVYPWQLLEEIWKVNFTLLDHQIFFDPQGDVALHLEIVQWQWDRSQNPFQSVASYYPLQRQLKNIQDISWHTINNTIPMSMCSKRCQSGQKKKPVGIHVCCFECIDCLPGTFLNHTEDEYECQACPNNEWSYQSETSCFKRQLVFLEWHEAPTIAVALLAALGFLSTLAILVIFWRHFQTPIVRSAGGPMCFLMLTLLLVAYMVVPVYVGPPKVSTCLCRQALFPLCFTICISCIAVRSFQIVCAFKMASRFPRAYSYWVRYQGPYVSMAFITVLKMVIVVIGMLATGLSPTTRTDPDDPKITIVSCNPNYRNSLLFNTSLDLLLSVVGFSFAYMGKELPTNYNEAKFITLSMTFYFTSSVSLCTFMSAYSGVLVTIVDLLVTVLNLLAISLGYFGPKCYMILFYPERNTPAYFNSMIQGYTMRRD",
  "sequence (Q7RTX0 21-852, chain 2 of 2, further chain)": "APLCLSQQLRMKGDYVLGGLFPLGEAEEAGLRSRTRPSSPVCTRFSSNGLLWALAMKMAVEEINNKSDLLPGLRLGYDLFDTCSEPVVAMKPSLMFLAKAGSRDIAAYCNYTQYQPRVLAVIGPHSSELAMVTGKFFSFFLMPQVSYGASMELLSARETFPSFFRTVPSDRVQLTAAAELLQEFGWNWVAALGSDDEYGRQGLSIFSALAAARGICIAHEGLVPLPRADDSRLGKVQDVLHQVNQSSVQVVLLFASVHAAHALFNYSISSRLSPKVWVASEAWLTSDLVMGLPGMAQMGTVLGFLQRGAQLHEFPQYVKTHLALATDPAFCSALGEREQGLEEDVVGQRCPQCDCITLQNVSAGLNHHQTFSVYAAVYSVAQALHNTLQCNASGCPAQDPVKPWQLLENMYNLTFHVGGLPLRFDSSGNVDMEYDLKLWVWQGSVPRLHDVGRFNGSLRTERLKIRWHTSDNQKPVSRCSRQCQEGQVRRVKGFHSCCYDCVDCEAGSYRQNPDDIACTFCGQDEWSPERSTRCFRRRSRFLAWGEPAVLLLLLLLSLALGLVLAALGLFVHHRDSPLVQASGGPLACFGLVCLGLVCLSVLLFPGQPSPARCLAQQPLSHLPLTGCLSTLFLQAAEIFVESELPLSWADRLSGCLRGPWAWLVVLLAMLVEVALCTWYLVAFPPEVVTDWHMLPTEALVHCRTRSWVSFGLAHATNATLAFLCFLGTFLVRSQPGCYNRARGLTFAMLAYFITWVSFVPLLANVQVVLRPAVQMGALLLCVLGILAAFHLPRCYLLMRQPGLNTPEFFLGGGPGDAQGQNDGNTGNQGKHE",
  "data": [
    {"substance": "Y65R-MNEI (ligand)", "values": [
      {"measurement": "sweetness threshold, triangle test by a panel of tasters, 5 to 500 nM (also printed as 0.62 mg/L)", "value": 55, "unit": "nM"}
    ]},
    {"substance": "Q28K, C41S, Y65R-MNEI (Mut2) (ligand)", "values": [
      {"measurement": "sweetness threshold, triangle test by a panel of tasters, 5 to 500 nM (also printed as 0.40 mg/L)", "value": 36, "unit": "nM"}
    ]},
    {"substance": "E23Q, Q28K, C41S, Y65R-MNEI (Mut3) (ligand)", "values": [
      {"measurement": "sweetness threshold, triangle test by a panel of tasters, 5 to 500 nM (also printed as 0.28 mg/L)", "value": 25, "unit": "nM"}
    ]},
    {"substance": "C41S, Y65R, S67K, D68N-MNEI (Mut1) (ligand)", "values": [
      {"measurement": "sweetness threshold, triangle test by a panel of tasters, 5 to 500 nM (also printed as 2.50 mg/L)", "value": 223, "unit": "nM"}
    ]}
  ]
}
